Tests used:
ADI-26915 = biological target: T1, ADI-26915; assay: SPR Carterra, yeast anti-ID
T1 construct: anti-CD3 antibody made in CHO cells, captured by anti-human Fc
Experimental: (§1) Kinetic analysis was conducted at 25° C. in an HBSTE running buffer system (Carterra Cat #3630) using a Carterra LSA (Carterra USA, Salt Lake City, UT). The sample compartment was maintained at 20° C. for the duration of each experiment.
(§2) For antibody capture experiments, a goat anti-human Fc antibody (Jackson ImmunoResearch) was covalently coupled to an HC30M sensor chip surface via standard amine coupling (1:1 EDC:NHS) and then blocked with ethanolamine (1.0 M, pH 8.5). Covalent coupling steps were performed in 25 mM MES buffer (Carterra, Cat #3625) plus 0.05% Tween20. The anti-CD3 antibodies (100 nM in running buffer) were flowed over discrete regions of interest on the chip surface for 5 minutes. […] Dissociation of the anti-idiotype antibodies was monitored for 300s. Several blank buffer samples were injected over the entire chip surface at the start of each non-regenerative kinetic cycle. The preceding blank buffer injection was used for blank surface subtraction. At the end of each non-regenerative kinetic cycle, all surfaces were regenerated via two 30s injections of 10 mM glycine, pH 1.7.
(§3) For data processing and fitting, sensorgrams were double reference subtracted with a baseline drift correction of 4 RU. Sensorgrams were y-aligned and baseline corrected, filtered and cropped to include only the association and dissociation steps. Data was fitted to a 1:1 binding model using Carterra Kinetics Data Analysis software version 1.7.1.3055.

ADI-70330 = biological target: T2, ADI-70330; assay: SPR Carterra, yeast anti-ID
T2 construct: anti-CD3 antibody made in CHO cells, captured by anti-human Fc
T2 sequence (VH, as listed by the source limits assumed, chain 1 of 2): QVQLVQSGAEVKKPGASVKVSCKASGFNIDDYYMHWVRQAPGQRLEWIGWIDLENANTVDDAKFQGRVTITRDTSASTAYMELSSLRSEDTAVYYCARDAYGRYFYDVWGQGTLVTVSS
T2 sequence (VL, as listed by the source limits assumed, chain 2 of 2): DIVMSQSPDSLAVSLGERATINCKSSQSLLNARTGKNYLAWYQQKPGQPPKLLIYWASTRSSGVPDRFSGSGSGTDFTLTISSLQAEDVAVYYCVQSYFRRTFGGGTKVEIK
Experimental: as §1, §2, §3

CTL-62228 = biological target: T3, CTL-62228; assay: SPR Carterra, yeast anti-ID
T3 construct: also called glofitamab
Experimental: as §1, §2, §3

CTL-62223 = biological target: T4, CTL-62223; assay: SPR Carterra, yeast anti-ID
T4 construct: also called mosunetuzumab
Experimental: as §1, §2, §3

CTL-62240 = biological target: T5, CTL-62240; assay: SPR Carterra, yeast anti-ID
T5 construct: also called ONO-4685
T5 sequence (VH, as listed by the source, chain 1 of 2): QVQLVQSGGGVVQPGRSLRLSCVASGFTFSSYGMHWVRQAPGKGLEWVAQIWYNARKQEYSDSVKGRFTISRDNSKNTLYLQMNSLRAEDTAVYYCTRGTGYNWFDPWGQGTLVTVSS
T5 sequence (VL, as listed by the source, chain 2 of 2): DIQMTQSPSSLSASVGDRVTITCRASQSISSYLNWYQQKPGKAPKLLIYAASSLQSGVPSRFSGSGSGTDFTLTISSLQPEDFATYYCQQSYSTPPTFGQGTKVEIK
Experimental: as §1, §2, §3

ADI-67445 = biological target: T6, ADI-67445; assay: SPR Carterra, yeast anti-ID
T6 construct: anti-CD3 antibody made in CHO cells, captured by anti-human Fc
T6 sequence (VH, as listed by the source limits assumed, chain 1 of 2): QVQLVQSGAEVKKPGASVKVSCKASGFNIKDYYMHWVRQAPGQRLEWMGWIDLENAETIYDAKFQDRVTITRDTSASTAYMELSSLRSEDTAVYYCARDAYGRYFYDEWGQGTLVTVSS
T6 sequence (VL, as listed by the source limits assumed, chain 2 of 2): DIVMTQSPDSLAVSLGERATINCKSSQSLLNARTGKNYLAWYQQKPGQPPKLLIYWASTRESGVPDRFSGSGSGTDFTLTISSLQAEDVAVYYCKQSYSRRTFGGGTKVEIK
Experimental: as §1, §2, §3

ADI-70327 = biological target: T7, ADI-70327; assay: SPR Carterra, yeast anti-ID
T7 construct: anti-CD3 antibody made in CHO cells, captured by anti-human Fc
T7 sequence (VH, as listed by the source limits assumed, chain 1 of 2): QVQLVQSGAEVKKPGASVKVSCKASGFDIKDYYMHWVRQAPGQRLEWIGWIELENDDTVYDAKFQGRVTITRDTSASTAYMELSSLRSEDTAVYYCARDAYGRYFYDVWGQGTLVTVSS
Experimental: as §1, §2, §3

CTL-62227 = biological target: T8, CTL-62227; assay: SPR Carterra, yeast anti-ID
T8 construct: also called odronextamab
T8 sequence (VH, as listed by the source, chain 1 of 2): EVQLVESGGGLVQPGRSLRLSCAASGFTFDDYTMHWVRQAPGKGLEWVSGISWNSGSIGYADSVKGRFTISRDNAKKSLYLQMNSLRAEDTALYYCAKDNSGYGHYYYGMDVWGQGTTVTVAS
T8 sequence (VL, as listed by the source, chain 2 of 2): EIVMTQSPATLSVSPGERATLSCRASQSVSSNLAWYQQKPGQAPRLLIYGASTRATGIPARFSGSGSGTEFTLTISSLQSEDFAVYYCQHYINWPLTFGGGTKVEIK
Experimental: as §1, §2, §3

ADI-67450 = biological target: T9, ADI-67450; assay: SPR Carterra avidity, yeast anti-ID
T9 construct: anti-CD3 antibody made in CHO cells, captured by anti-human Fc
Experimental: as §1, §2, §3

ADI-74968 = biological target: T10, ADI-74968; assay: SPR Carterra avidity, yeast anti-ID
T10 construct: pH-dependent anti-CD3 antibody made in CHO cells
T10 sequence (VH, as listed by the source, chain 1 of 2): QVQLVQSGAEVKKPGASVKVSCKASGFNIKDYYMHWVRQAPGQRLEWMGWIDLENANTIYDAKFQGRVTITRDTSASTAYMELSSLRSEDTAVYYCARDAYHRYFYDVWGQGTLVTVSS
T10 sequence (VL, as listed by the source, chain 2 of 2): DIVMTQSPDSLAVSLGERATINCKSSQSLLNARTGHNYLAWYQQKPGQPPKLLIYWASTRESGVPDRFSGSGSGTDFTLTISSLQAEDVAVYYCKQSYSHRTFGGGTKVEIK
Experimental: as §1, §2, §3

ADI-26921 IgG = biological target: T11, ADI-26921 IgG; assay: SPR Carterra avidity, yeast anti-ID
T11 construct: anti-CD3 IgG
Experimental: as §1, §2, §3

ADI-48576 = biological target: T12, ADI-48576; assay: SPR Carterra avidity, yeast anti-ID
T12 construct: pH-dependent anti-CD3 antibody made in CHO cells
Experimental: as §1, §2, §3

ADI-67447 = biological target: T13, ADI-67447; assay: SPR Carterra avidity, yeast anti-ID
T13 construct: anti-CD3 antibody made in CHO cells, captured by anti-human Fc
Experimental: as §1, §2, §3

ADI-48592 = biological target: T14, ADI-48592; assay: SPR Carterra avidity, yeast anti-ID
T14 construct: pH-dependent anti-CD3 antibody made in CHO cells
T14 sequence (VH, as listed by the source, chain 1 of 2): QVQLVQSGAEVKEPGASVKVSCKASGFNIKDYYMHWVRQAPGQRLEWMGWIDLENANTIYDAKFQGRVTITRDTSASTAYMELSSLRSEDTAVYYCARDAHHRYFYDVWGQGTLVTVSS
T14 sequence (VL, as listed by the source, chain 2 of 2): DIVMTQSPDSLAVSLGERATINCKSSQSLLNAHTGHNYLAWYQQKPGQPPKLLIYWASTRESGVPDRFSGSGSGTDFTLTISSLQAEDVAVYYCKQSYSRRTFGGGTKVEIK
Experimental: as §1, §2, §3

ADI-48650 = biological target: T15, ADI-48650; assay: SPR Carterra avidity, yeast anti-ID
T15 construct: pH-dependent anti-CD3 antibody made in CHO cells
Experimental: as §1, §2, §3

ADI-74966 = biological target: T16, ADI-74966; assay: SPR Carterra avidity, yeast anti-ID
T16 construct: pH-dependent anti-CD3 antibody made in CHO cells
Experimental: as §1, §2, §3

ADI-76359 = biological target: T17, ADI-76359; assay: SPR Carterra avidity, yeast anti-ID
T17 construct: anti-CD3 antibody made in CHO cells, captured by anti-human Fc
Experimental: as §1, §2, §3

ADI-26909 = biological target: T18, ADI-26909; assay: SPR Carterra avidity, yeast anti-ID
T18 construct: anti-CD3 antibody made in CHO cells, captured by anti-human Fc
T18 sequence (VH, as listed by the source limits assumed, chain 1 of 2): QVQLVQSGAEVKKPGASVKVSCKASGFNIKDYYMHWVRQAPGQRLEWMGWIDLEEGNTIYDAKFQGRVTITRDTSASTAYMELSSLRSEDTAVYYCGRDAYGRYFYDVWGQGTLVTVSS
Experimental: as §1, §2, §3

ADI-50024 = biological target: T19, ADI-50024; assay: SPR Carterra avidity, yeast anti-ID
T19 construct: anti-CD3 antibody made in CHO cells, captured by anti-human Fc
T19 sequence (VH, as listed by the source limits assumed, chain 1 of 2): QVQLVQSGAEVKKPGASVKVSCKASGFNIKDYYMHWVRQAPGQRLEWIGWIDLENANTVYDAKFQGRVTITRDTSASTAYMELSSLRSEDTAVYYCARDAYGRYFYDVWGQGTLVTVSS
Experimental: as §1, §2, §3

ADI-74965 = biological target: T20, ADI-74965; assay: SPR Carterra avidity, yeast anti-ID
T20 construct: pH-dependent anti-CD3 antibody made in CHO cells
T20 sequence (VL, as listed by the source, chain 2 of 2): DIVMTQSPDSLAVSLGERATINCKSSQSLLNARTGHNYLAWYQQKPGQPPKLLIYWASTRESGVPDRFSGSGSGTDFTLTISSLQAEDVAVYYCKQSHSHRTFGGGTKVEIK
Experimental: as §1, §2, §3

ADI-48587 = biological target: T21, ADI-48587; assay: SPR Carterra avidity, yeast anti-ID
T21 construct: pH-dependent anti-CD3 antibody made in CHO cells
Experimental: as §1, §2, §3

ADI-76358 = biological target: T22, ADI-76358; assay: SPR Carterra avidity, yeast anti-ID
T22 construct: anti-CD3 antibody made in CHO cells, captured by anti-human Fc
Experimental: as §1, §2, §3

ADI-26912 = biological target: T23, ADI-26912; assay: SPR Carterra avidity, yeast anti-ID
T23 construct: anti-CD3 antibody made in CHO cells, captured by anti-human Fc
T23 sequence (VH, as listed by the source, chain 1 of 2): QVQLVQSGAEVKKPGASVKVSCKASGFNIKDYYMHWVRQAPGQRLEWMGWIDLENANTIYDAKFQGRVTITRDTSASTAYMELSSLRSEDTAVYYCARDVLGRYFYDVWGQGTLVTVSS
Experimental: as §1, §2, §3

ADI-76361 = biological target: T24, ADI-76361; assay: SPR Carterra avidity, yeast anti-ID
T24 construct: anti-CD3 antibody made in CHO cells, captured by anti-human Fc
Experimental: as §1, §2, §3

ADI-74967 = biological target: T25, ADI-74967; assay: SPR Carterra avidity, yeast anti-ID
T25 construct: pH-dependent anti-CD3 antibody made in CHO cells
Experimental: as §1, §2, §3

ADI-76362 = biological target: T26, ADI-76362; assay: SPR Carterra avidity, yeast anti-ID
T26 construct: anti-CD3 antibody made in CHO cells, captured by anti-human Fc
Experimental: as §1, §2, §3

ADI-76360 = biological target: T27, ADI-76360; assay: SPR Carterra avidity, yeast anti-ID
T27 construct: anti-CD3 antibody made in CHO cells, captured by anti-human Fc
Experimental: as §1, §2, §3

ADI-70326 = biological target: T28, ADI-70326; assay: SPR Carterra avidity, yeast anti-ID
T28 construct: anti-CD3 antibody made in CHO cells, captured by anti-human Fc
Experimental: as §1, §2, §3

ADI-22523 IgG = biological target: T29, ADI-22523 IgG; assay: BLI; tip anti-ID IgG, solution ADI-22523 IgG
T29 construct: anti-CD3 IgG
T29 sequence (VH, as listed by the source limits assumed, chain 1 of 2): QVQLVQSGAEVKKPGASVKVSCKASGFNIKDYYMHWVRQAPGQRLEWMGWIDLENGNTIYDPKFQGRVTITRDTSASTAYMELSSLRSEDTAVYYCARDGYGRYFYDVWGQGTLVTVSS
T29 sequence (VL, as listed by the source limits assumed, chain 2 of 2): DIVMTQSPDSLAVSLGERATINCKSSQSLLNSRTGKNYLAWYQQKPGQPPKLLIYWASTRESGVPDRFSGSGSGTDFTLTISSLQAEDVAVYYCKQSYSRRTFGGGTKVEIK
Outline: (§4)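 Sensors carrying captured anti-ID IgG were equilibrated 30 min in assay buffer before a 60 s baseline. Equilibrium KD was taken as koff/kon from a 1:1 model.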

ADI-22523 Fab = biological target: T30, ADI-22523 Fab; assay: BLI; tip anti-ID IgG, solution ADI-22523 Fab
T30 construct: anti-CD3 Fab by papain digestion of the IgG
Outline: as §4

ADI-26916 IgG = biological target: T31, ADI-26916 IgG; assay: SPR Carterra avidity, yeast anti-ID, *koff limit
T31 construct: anti-CD3 IgG
Experimental: as §1, §2, §3

ADI-26920 IgG = biological target: T32, ADI-26920 IgG; assay: SPR Carterra avidity, yeast anti-ID, *koff limit
T32 construct: anti-CD3 IgG
Experimental: as §1, §2, §3

ADI-26924 = biological target: T33, ADI-26924; assay: SPR Carterra avidity, yeast anti-ID, *koff limit
T33 construct: anti-CD3 antibody made in CHO cells, captured by anti-human Fc
Experimental: as §1, §2, §3

ADI-26919 = biological target: T34, ADI-26919; assay: SPR Carterra avidity, yeast anti-ID, *koff limit
T34 construct: anti-CD3 antibody made in CHO cells, captured by anti-human Fc
T34 sequence (VH, as listed by the source limits assumed, chain 1 of 2): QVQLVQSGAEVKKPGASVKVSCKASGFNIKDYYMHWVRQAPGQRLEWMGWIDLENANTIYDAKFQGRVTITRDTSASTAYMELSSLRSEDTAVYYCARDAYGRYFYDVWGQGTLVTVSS
T34 sequence (VL, as listed by the source limits assumed, chain 2 of 2): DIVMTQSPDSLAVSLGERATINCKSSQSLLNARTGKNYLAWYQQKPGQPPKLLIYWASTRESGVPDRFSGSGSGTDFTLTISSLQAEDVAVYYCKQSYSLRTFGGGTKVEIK
Experimental: as §1, §2, §3

ADI-26913 IgG = biological target: T35, ADI-26913 IgG; assay: SPR Carterra avidity, yeast anti-ID, *koff limit
T35 construct: anti-CD3 IgG
Experimental: as §1, §2, §3

ADI-26943 = biological target: T36, ADI-26943; assay: SPR Carterra avidity, yeast anti-ID, *koff limit
T36 construct: anti-CD3 antibody made in CHO cells, captured by anti-human Fc
T36 sequence (VH, as listed by the source, chain 1 of 2): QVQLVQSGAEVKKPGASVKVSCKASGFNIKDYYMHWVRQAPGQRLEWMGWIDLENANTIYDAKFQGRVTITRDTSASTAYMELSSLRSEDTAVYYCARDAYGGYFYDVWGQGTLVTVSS
T36 sequence (VL, as listed by the source, chain 2 of 2): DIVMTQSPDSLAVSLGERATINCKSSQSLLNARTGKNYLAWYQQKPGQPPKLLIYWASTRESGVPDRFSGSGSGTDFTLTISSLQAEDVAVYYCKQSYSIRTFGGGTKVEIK
Experimental: as §1, §2, §3

ADI-26906 IgG = biological target: T37, ADI-26906 IgG; assay: SPR Carterra avidity, yeast anti-ID, *koff limit
T37 construct: anti-CD3 IgG
Experimental: as §1, §2, §3

ADI-76357 = biological target: T38, ADI-76357; assay: SPR Carterra avidity, yeast anti-ID, *koff limit
T38 construct: anti-CD3 antibody made in CHO cells, captured by anti-human Fc
T38 sequence (VH, as listed by the source, chain 1 of 2): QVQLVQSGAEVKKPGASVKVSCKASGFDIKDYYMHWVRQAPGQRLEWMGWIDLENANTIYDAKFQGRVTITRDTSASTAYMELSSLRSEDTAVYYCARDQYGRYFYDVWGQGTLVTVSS
Experimental: as §1, §2, §3

T1 sequence (VH, as listed by the source, chain 1 of 2): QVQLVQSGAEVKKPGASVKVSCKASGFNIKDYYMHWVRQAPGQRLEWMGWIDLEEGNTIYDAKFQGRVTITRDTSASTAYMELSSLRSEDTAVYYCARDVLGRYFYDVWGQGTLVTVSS

B1: ADI-34141 (antibody, V domains shown)
VH: EVQLLESGGGLVQPGGSLRLSCAASGFTFSSYAMSWVRQAPGKGLEWVSTISGSGGSTYYADSVKGRFTISRDNSKNTLYLQMNSLRAEDTAVYYCARLGGRRGSGSSYYYYYGMDVWGQGTTVTVSS
VL: not shown
notes: anti-ID IgG
binding result (ADI-26915): no binding (tested: up to 200 nM)
binding result (ADI-70330): no binding (tested: up to 200 nM)
binding result (CTL-62228): no binding (tested: up to 200 nM)
binding result (CTL-62223): no binding (tested: up to 200 nM)
binding result (CTL-62240): no binding (tested: up to 200 nM)
binding result (ADI-67445): no binding (tested: up to 200 nM)
binding result (ADI-70327): no binding (tested: up to 200 nM)
binding result (CTL-62227): no binding (tested: up to 200 nM)
binding result (ADI-67450): binds
Kd (ADI-74968): 63 nM
binding result (ADI-26921 IgG): binds
Kd (ADI-48576): 22 nM
Kd (ADI-67447): 17 nM
binding result (ADI-48592): binds
binding result (ADI-48650): binds
Kd (ADI-74966): 51 nM
Kd (ADI-76359): 14 nM
binding result (ADI-26909): binds
binding result (ADI-50024): binds
Kd (ADI-74965): 33 nM
binding result (ADI-48587): binds
binding result (ADI-76358): binds
binding result (ADI-26912): binds
binding result (ADI-76361): binds
Kd (ADI-74967): 32 nM
binding result (ADI-76362): binds
Kd (ADI-76360): 54 nM
binding result (ADI-70326): binds
Kd (ADI-22523 IgG): 2.83 nM
Kd (ADI-22523 Fab): 16.5 nM
Kd (ADI-26916 IgG): 10 nM
Kd (ADI-26920 IgG): 7.1 nM
Kd (ADI-26924): 5.4 nM
Kd (ADI-26919): 10 nM
Kd (ADI-26913 IgG): 7 nM
Kd (ADI-26943): 5.7 nM
Kd (ADI-26906 IgG): 13 nM
Kd (ADI-76357): 7.6 nM

Reference: US20250019439A1 (Adimab, published 2025)
